Earlier results in article PMC11301627.

Biological target: Asp133 (UniProt position 133, SNFHFDTTAAH)
Assay: kinetics
Settings: wild-type enzyme, steady-state reaction with L-Trp

Q: Which pKa does the source give for “Tryptophan indole-lyase (TIL, tryptophanase) (Proteus vulgaris)” here?
A: The pKa was 5.3.
